Experiment [1] concerns the target T1, recombinant BMPER (BMP endothelial cell precursor-derived regulator) ( (recombinant human and …, UniProt Q8N8U9 40-685)).
T1 construct: BMPER, recombinant protein used as analyte in SPR; whether this holds for the SPR proteins is surmised; Secreted glycoprotein; also called soluble BMPER; source: recombinant
Put plainly: SPR; BIAcore 2000; BMP-4 immobilised at 430 RU on CM5 by amine coupling; 0-320 nM BMPER or IGFBP-4 injected in HBS-EP; 1:1 model with mass transfer; apparent KD = kd/ka. The conditions noted are these: both partners purified.

Experiment [2] addresses T1, recombinant BMPER (BMP endothelial cell …). Briefly: SPR; BIAcore 2000; IGFBP-4 immobilised at 360 RU on CM5 by amine coupling; 0-320 nM BMPER injected in HBS-EP (0.01 M HEPES pH 7.4, 0.15 M NaCl, 3 mM EDTA, 0.005% P20), 180 s association, 180 s dissociation; 1:1 model with mass transfer; apparent KD = kd/ka. The conditions noted are these: both partners purified.

T1 sequence (Q8N8U9 40-685): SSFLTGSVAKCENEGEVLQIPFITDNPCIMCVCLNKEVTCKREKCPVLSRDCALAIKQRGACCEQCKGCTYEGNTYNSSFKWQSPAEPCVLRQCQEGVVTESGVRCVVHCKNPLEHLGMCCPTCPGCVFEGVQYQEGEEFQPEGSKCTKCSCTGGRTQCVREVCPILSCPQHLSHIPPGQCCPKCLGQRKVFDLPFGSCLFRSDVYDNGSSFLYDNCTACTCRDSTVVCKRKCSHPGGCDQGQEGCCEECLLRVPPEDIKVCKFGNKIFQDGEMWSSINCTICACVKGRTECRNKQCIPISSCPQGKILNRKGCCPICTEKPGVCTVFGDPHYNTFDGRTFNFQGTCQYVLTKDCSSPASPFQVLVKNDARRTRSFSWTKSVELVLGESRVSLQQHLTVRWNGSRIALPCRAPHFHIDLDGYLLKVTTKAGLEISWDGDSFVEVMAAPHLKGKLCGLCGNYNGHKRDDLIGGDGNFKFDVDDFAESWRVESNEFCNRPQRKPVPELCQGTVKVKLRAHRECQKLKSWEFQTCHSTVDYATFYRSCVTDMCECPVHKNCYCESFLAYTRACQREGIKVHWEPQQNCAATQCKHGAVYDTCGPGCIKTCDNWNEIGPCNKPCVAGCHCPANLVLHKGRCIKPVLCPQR

B1: BMP-4 (bone morphogenetic protein 4) (ligand, UniProt P12644 293-408, looked up)
chain: SPKHHSQRARKKNKNCRRHSLYVDFSDVGWNDWIVAPPGYQAFYCHGDCPFPLADHLNSTNHAIVQTLVNSVNSSIPKACCVPTELSAISMLYLDEYDKVVLKNYQEMVVEGCGCR
notes: BMP4, immobilised on a CM5 chip in SPR
B1: the Kd in experiment [1] is 1.5 nM.

B2: recombinant IGFBP-4 (insulin-like growth factor-binding protein 4) (natural protein, UniProt P22692 22-258, looked up)
chain: DEAIHCPPCSEEKLARCRPPVGCEELVREPGCGCCATCALGLGMPCGVYTPRCGSGLRCYPPRGVEKPLHTLMHGQGVCMELAEIEAIQESLQPSDKDEGDHPNNSFSPCSAHDRRCLQKHFAKIRDRSTSGGKMKVNGAPREDARPVPQGSCQSELHRALERLAASQSRTHEDLYIIPIPNCDRNGNFHPKQCHPALDGQRGKCWCVDRKTGVKLPGGLEPKGELDCHQLADSFRE
notes: IGFBP4, recombinant protein immobilised or injected in SPR; whether this holds for the SPR proteins is surmised; source: recombinant
With B2, the Kd in experiment [2] stood at 6.04 ± 1.86 nM.

The values are drawn from PMC10002482, “BMPER Improves Vascular Remodeling and the Contractile Vascular SMC Phenotype” (International Journal of Molecular Sciences, 2023).
